Results reported in publication PMC4336326, “The Nucleocapsid Protein of Human Coronavirus NL63” (PLoS ONE, 2015).

B1: HCoV-NL63 nucleocapsid (N) protein, complete (natural protein)
chain: MASVNWADDRAARKKFPPPSFYMPLLVSSDKAPYRVIPRNLVPIGKGNKDEQIGYWNVQERWRMRRGQRVDLPPKVHFYYLGTGPHKDLKFRQRSDGVVWVAKEGAKTVNTSLGNRKRNQKPLEPKFSIALPPELSVVEFEDRSNNSSRASSRSSTRNNSRDSSRSTSRQQSRTRSDSNQSSSDLVAAVTLALKNLGFDNQSKSPSSSGTSTPKKPNKPLSQPRADKPSQLKKPRWKRVPTREENVIQCFGPRDFNHNMGDSDLVQNGVDAKGFPQLAELIPNQAALFFDSEVSTDEVGDNVQITYTYKMLVAKDNKNLPKFIEQISAFTKPSSIKEMQSQSSHVAQNTVLNASIPESKPLADDDSAIIEIVNEVLH
notes: also called WT; complete NL63-N protein; source: E. coli BL21, purified (Ni Sepharose, Resource Q, Superdex S75) to about 80% homogeneity

How the values were obtained:
[1] = target: C-terminal domain of the HCoV-NL63 nucleocapsid protein (HCoV-NL63 (isolate Amsterdam 1)) (UniProt Q6Q1R8); test: SEC; CTD analysed by size exclusion chromatography; two peaks taken as dimer and monomer from retention time and SDS-PAGE; column and buffer not given
[2] = target: C-terminal domain of the HCoV-NL63 nucleocapsid protein (HCoV-NL63 (isolate Amsterdam 1)) (UniProt Q6Q1R8); test: cross-linking; 50 ug of protein with 0.007% glutaraldehyde, 15 min at room temperature, stopped with Tris, then SDS-PAGE (Coomassie)
[3] = target: the molecule itself; test: native MS; ESI mass spectrometry (MicroTOF-QII, positive ionization mode) of samples dialysed into 50 mM NH4HCO3, pH 7.8; masses of monomer and dimer from deconvolved spectra

Molecule | percent of the protein present as dimers [1] [%] | stoichiometry N [1] | stoichiometry N [2] | stoichiometry N [3]
C-terminal domain of the HCoV-NL63 nucleocapsid protein (from UniProt Q6Q1R8 221-340) (domain or fragment) | 40 | 2 | > 2 | –
B1 | – | – | – | 2
